From publication PMC8974011

Molecular target: T1, endogenous STAT1 of HeLa cells (human (endogenous in HeLa)), P42224
T1 chain: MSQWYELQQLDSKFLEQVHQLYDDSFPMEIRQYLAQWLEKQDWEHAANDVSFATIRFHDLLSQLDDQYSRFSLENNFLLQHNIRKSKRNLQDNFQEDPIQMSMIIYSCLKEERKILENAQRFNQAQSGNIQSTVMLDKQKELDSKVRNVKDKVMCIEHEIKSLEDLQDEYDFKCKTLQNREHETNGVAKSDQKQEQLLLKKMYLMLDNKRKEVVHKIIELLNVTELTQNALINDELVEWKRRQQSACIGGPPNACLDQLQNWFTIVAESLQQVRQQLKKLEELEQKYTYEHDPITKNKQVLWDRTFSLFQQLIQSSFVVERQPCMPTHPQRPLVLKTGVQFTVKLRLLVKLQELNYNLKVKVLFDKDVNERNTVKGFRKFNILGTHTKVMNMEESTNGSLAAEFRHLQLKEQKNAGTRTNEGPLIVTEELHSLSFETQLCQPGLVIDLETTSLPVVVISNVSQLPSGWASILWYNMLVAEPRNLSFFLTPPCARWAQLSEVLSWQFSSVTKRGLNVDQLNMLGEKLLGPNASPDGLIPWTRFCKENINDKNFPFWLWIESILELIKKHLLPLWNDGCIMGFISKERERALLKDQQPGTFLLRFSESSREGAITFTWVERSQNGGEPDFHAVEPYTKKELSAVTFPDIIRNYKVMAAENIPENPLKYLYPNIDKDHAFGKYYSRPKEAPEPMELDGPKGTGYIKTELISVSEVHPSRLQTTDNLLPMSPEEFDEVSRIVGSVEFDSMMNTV
Assay: native gel or EMSA; extracts of IFNγ-stimulated HeLa cells incubated with [33P]-labelled 2xGAS duplex DNA (two tandem GAS sites); super-shift with STAT1 antibody; competition with 750-fold molar excess of unlabelled M67 DNA; 4.8% acrylamide gel at 4 °C; only DNA-bound complexes are seen
Settings: remark: other sources report otherwise

B1: endogenous STAT1 of HeLa cells, P42224 1-750 (natural protein)
chain: T1 chain
modifications: here or on the partner: phospho-tyrosine 701 (P-STAT1, IFNγ-stimulated cells); phospho-tyrosine 701 (P-STAT1, IFNγ-stimulated cells)
**Q.** For B1, which stoichiometry N is on record?
**A.** 4
